Laboratory results taken from patent US20080108135A1 (University of California, published 2008).
Like-named read-outs stand apart in the source and are kept apart here.

Legend:
[1] = target: ErbB2 on tumor cell lines (SKBR3, SK-OV-3, MCF7) (UniProt P04626); test: cell-based or functional assay
[2] = target: ErbB2 on tumor cell lines (SKBR3, SK-OV-3, MCF7) (UniProt P04626); test: 5.0 × 10^11 phage on about 1.0 × 10^5 SKBR3 cells at 37 C, surface bound phage eluted with low pH glycine, titered on E. coli TG1
[3] = target: ErbB2 on tumor cell lines (SKBR3, SK-OV-3, MCF7) (UniProt P04626)
[4] = target: T1, ErbB2 (form in the assay not stated) (UniProt P04626 23-1255); test: competition by flow cytometry, panel 'C1 phage binding': soluble scFv inhibits binding of C1 phage; % of maximal MFI
T1 construct: also called c-erbB-2

[5] = target: T1, ErbB2 (form in the assay not stated); test: method not stated

**Q.** With C6.5cys scFv conjugated to liposomes as the molecule, how does the Total uptake of scFv-conjugated liposomes by SKBR3 cells [1] read?
**A.** 3.4

**Q.** And the share of the liposome uptake that was internalized, SKBR3 cells [1]?
**A.** 70%

**Q.** With C6.5 diabody phage as the molecule, how does the Lysed cell fraction (titer of internalized phage), SKBR3 cells [1] read?
**A.** 1.7e+07 phage titer

**Q.** And the cells with internalized phage, confocal microscopy, SKBR3 cells [1]?
**A.** 20 % of cells

**Q.** What about the titer of cell surface bound phage, 1st glycine wash [2] of the same molecule?
**A.** 1.8e+07 phage titer

**Q.** And the titer of cell surface bound phage, 2nd glycine wash [2]?
**A.** 2.8e+06 phage titer

**Q.** For “C6.5 phage (anti-ErbB2 C6.5 scFv displayed on phage)”, which Lysed cell fraction (titer of internalized phage), SKBR3 cells [1] is on record?
**A.** 6.8e+07 phage titer

**Q.** And the titer of cell surface bound phage, 1st glycine wash [2]?
**A.** 1.2e+07 phage titer

**Q.** And the titer of cell surface bound phage, 2nd glycine wash [2]?
**A.** 5.2e+06 phage titer

**Q.** How did the Lysed cell fraction (titer of internalized phage), SKBR3 cells [1] turn out when irrelevant anti-Botulinum phage (scFv) was run?
**A.** 600000 phage titer

**Q.** And the titer of cell surface bound phage, 1st glycine wash [3]?
**A.** 600000 phage titer

**Q.** What about the titer of cell surface bound phage, 2nd glycine wash [3] of the same molecule?
**A.** 100000 phage titer

B1: F5 scFv (native purified soluble scFv) (scFv, not shown: small tags and cut ends)
scFv: QVQLVESGGGLVQPGGSLRLSCAASGFTFRSYAMSWVRQAPGKGLEWVSAISGRGDNTYYADSVKGRFTISRDNSKNTLYLQMNSLRAEDTAVYYCAKMTSNAFAFDYWGQGTLVTVSSGGGGSGGGGSGGGGSQSVLTQPPSVSGAPGQRVTISCTGSSSNIGAGYGVHWYQQLPGTAPKLLIYGNTNRPSGVPDRFSGFKSGTSASLAITGLQAEDEADYYCQSYDSSLSGWVFGGGTKLTVLG
notes: also called 3TF5; scFv-F5
**Q.** How did the “IC50 (read off the curve)” value [4] turn out when B1 was run?
**A.** ~0.2 µM

**Q.** What about the Kd [5] of the same molecule?
**A.** 0.32 µM
